# Reference: patent US20170283834A1, “Processes for Producing A Fermentation Product Using A Fermenting Organism” (Novozymes A/S, priority 2014, published 2017)
# B1: Penicillium oxalicum glucoamylase: wild type Penicillium oxalicum glucoamylase disclosed in SEQ ID NO: 9 (protein, listed as Penicillium oxalicum)
# chain: MRLTLLSGVAGVLCAGQLTAARPDPKGGNLTPFIHKEGERSLQGILDNLGGRGKKTPGTAAGLFIASPNTENPNYYYTWTRDSALTAKCLIDLFEDSRAKFPIDRKYLETGIRDYVSSQAILQSVSNPSGTLKDGSGLGEPKFEIDLNPFSGAWGRPQRDGPALRATAMITYANYLISHGQKSDVSQVMWPIIANDLAYVGQYWNNTGFDLWEEVDGSSFFTIAVQHRALVEGSQLAKKLGKSCDACDSQPPQILCFLQSFWNGKYITSNINTQASRSGIDLDSVLGSIHTFDPEAACDDATFQPCSARALANHKVYVDSFRSIYKINAGLAEGSAANVGRYPEDVYQGGNPWYLATLGASELLYDALYQWDRLGKLEVSETSLSFFKDFDATVKIGSYSRNSKTYKKLTQSIKSYADGFIQLVQQYTPSNGSLAEQYDRNTAAPLSANDLTWSFASFLTATQRRDAVVPPSWGAKSANKVPTTCSASPVVGTYKAPTATFSSKTKCVPAKDIVPITFYLIENTYYGENVFMSGNITALGNWDAKKGFPLTANLYTQDQNLWFASVEFIPAGTPFEYKYYKVEPNGDITWEKGPNRVFVAPTGCPVQPHSNDVWQF
# Test: Penicillium oxalicum glucoamylase: pH stability
# Type: biochemical
# Method: Substrate: 1% soluble starch (Sigma S-9765) in deionized water
# 20 microL soluble starch and 50 microL acetate buffer at pH 5.3 were mixed. 30 microL enzyme solution (50 micro g enzyme protein/ml) was added to a final volume of 100 microL followed by incubation at 37° C. for 15 min.
# The glucose concentration was determined by Wako kits.
# pH optimum. To assess the pH optimum of the Penicillium oxalicum glucoamylase the Reaction condition assay described above was performed at pH 2.0, 3.0, 3.5, 4.0, 4.5, 5.0, 6.0 7.0, 8.0, 9.0, 10.0 and 11.0. Instead of using the acetate buffer described in the Reaction condition assay the following buffer was used 100 mM Succinic acid, HEPES, CHES, CAPSO, 1 mM CaCl2, 150 mM KCl, 0.01% Triton X-100, pH adjusted to 2.0, 3.0, 3.5, 4.0, 4.5, 5.0, 6.0 7.0, 8.0, 9.0, 10.0 or 11.0 with HCl or NaOH.
# To assess the […] of the Penicillium oxalicum glucoamylase the Reaction condition assay was modifed in that the enzyme solution (50 micro g/mL) was preincubated for 20 hours in buffers with pH 2.0, 3.0, 3.5, 4.0, 4.5, 5.0, 6.0 7.0, 8.0, 9.0, 10.0 and 11.0 using the buffers described under pH optimum. After preincubation, 20 microL soluble starch to a final volume of 100 microL was added to the solution and the assay was performed as described above.
molecule,measurement,setting,value
B1,Relative activity (%),preincubated 20 hours at pH 2.0,17.4%
same,Relative activity (%),preincubated 20 hours at pH 3.0,98.0%
same,Relative activity (%),preincubated 20 hours at pH 3.5,98.0%
same,Relative activity (%),preincubated 20 hours at pH 4.0,103.2%
same,Relative activity (%),preincubated 20 hours at pH 4.5,100.0%
same,Relative activity (%),preincubated 20 hours at pH 5.0,93.4%
same,Relative activity (%),preincubated 20 hours at pH 6.0,71.2%
same,Relative activity (%),preincubated 20 hours at pH 7.0,90.7%
same,Relative activity (%),preincubated 20 hours at pH 8.0,58.7%
same,Relative activity (%),preincubated 20 hours at pH 9.0,17.4%
same,Relative activity (%),preincubated 20 hours at pH 10.0,17.0%
same,Relative activity (%),preincubated 20 hours at pH 11.0,17.2%
